From article PMC8198134, “Structural Basis for the Diminished Ligand Binding and Catalytic Ability of Human Fetal-Specific CYP3A7” (International Journal of Molecular Sciences, 2021) come the findings set out here.

Substrate in this data set: O=c1cc(C(F)(F)F)c2ccc(OCc3ccccc3)cc2o1
Description: purified protein. It is filed as biochemical, Homo sapiens. As to conditions: heme.

B1: CYP3A7mut (Homo sapiens; C77G/K244E/K421A/K422A/K424A/R69G) (protein)
chain: YLYGTRTHGLFKKLGIPGPTPLPFLGNALSFRKGYWTFDMECYKKYGKVWGIYDGQQPMLAITDPDMIKTVLVKECYSVFTNRRPFGPVGFMKNAISIAEDEEWKRIRSLLSPTFTSGKLKEMVPIIAQYGDVLVRNLRREAETGKPVTLKHVFGAYSMDVITSTSFGVSIDSLNNPQDPFVENTKKLLRFNPLDPFVLSIKVFPFLTPILEALNITVFPREVISFLTKSVKQIKEGRLKETQKHRVDFLQLMIDSQNSKDSETHKALSDLELMAQSIIFIFAGYETTSSVLSFIIYELATHPDVQQKVQKEIDTVLPNKAPPTYDTVLQLEYLDMVVNETLRLFPVAMRLERVCKKDVEINGMFIPKGVVVMIPSYVLHHDPKYWTEPEKFLPERFSAANADNIDPYIYTPFGSGPRNCIGMRFALVNMKLALVRVLQNFSFKPCKETQIPLKLRFGGLLLTEKPIVLKAESRDETVSGA
notes: Δ3-22 (lacking the membrane tether, residues 3-22), C-terminal 4-histidine tag
B1: the Michaelis constant (Km) worked out at 11 ± 1 µM, the kcat was 0.000567 ± 8.33e-05 s⁻¹ and the kcat/Km stood at 51.7 M⁻¹ s⁻¹.

One may read the Km as the substrate concentration at which the rate is half of its maximum. For orientation: kcat means the number of substrate molecules converted per active site and unit of time at saturation. A word on the kcat/Km: it is the second-order rate constant that governs catalysis at low substrate concentration.
